Measurements as given in patent US20140329706A1, “AFFINITY TAGS, AND RELATED AFFINITY LIGANDS, ENGINEERED PROTEINS, MODIFIED SUPPORTS, COMPOSITIONS, METHODS AND SYSTEMS” (CALIFORNIA INSTITUTE OF TECHNOLOGY, priority 2013, published 2014).

B1: untagged cypin: full length cypin (guanine deaminase, Homo sapiens: AA 1-454) (protein)
chain: MCAAQMPPLAHIFRGTFVHSTWTCPMEVLRDHLLGVSDSGKIVFLEEASQQEKLAKEWCFKPCEIRELSHHEFFMPGLVDTHIHASQYSFAGSSIDLPLLEWLTKYTFPAEHRFQNIDFAEEVYTRVVRRTLKNGTTTACYFATIHTDSSLLLADITDKFGQRAFVGKVCMDLNDTFPEYKETTEESIKETERFVSEMLQKNYSRVKPIVTPRFSLSCSETLMGELGNIAKTRDLHIQSHISENRDEVEAVKNLYPSYKNYTSVYDKNNLLTNKTVMAHGCYLSAEELNVFHERGASIAHCPNSNLSLSSGFLNVLEVLKHEVKIGLGTDVAGGYSYSMLDAIRRAVMVSNILLINKVNEKSLTLKEVFRLATLGGSQALGLDGEIGNFEVGKEFDAILINPKASDSPIDLFYGDFFGDISEAVIQKFLYLGDDRNIEEVYVGGKQVVPFSSSV
B2: MBP-cypin: cypin fused to an N-terminal maltose binding protein (protein)
chain: B1 chain
modifications: left off: large carriers

Molecular target: T1, PSD-95 PDZ1-PDZ2 (Mus musculus, UniProt Q62108)
T1 construct: HaloTag-PDZ1+PDZ2 fusion protein (residues 61 to 249 of Mus musculus PSD-95); HaloTag (N); made in house
Assay: Binding of cypin to PSD-95 PDZ1-PDZ2 affinity resin
Text: An affinity column was used substituted with a HaloTag-PDZ1+PDZ2 fusion protein (residues 61 to 249 of Mus musculus PSD-95) to purify heterologously expressed human cypin. Cypin was expressed in E. coli either as the free protein or fused to an N-terminal MBP, and purified from the bacterial supernate on the PDZ1-PDZ2 Domain-Affinity Resin. Both cypin and MBP-cypin were purified to >99% homogeneity.
For the experiment, full length cypin (guanine deaminase, Homo sapiens: AA 1-454) or MBP-cypin fusion proteins were expressed in BL21(DE3) E. coli cells. Single colonies of BL21(DE3) cells harboring pJExpress414 plasmids containing cypin or MBP-cypin genes were grown overnight at 37° C. in 5 ml of lysogeny broth (LB) (Cat. No. L9110, Teknova, Hollister, Calif.) supplemented with 100 ug/ml carbenicillin. […] Bacterial cell pellets (0.4-2.5 grams) containing cypin or MBP-cypin were resuspended in 5 ml/g cell paste of BugBuster Lysis Buffer [1× BugBuster (Cat. No. 70921, EMD Millipore, Billerica Mass.), 50 mM HEPES, 150 mM NaCl, 5 mM TCEP, 0.5 mM EDTA, 10 mM MgCl2, 2 mM PMSF, Complete Protease Inhibitor supplemented with 25 U/ml Benzonase and 10 U/ml ReadyLyse]. […] Eluted protein was analyzed on 4-12% bis-tris SDS-PAGE gels and proteins were detected by Gel Code Blue staining.

T1 sequence (Q62108 61-249): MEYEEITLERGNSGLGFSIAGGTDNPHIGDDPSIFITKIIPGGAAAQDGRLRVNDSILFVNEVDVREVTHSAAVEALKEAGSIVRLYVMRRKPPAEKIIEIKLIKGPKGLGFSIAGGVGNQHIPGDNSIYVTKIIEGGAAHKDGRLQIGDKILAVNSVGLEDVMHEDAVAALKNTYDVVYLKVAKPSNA

Molecule | binding to solid support PDZ1 and PDZ2 domains
B1 | able to bind with strong affinity
B2 | able to bind with strong affinity
